Common to all, as to format: physicochemical
Data set [1] can be described thus: Composition and gel chromatography of the isolated phospholipid-protein complexes. The following applies: for Composition DPPC/Protein w/w: isolated complex with DPPC, maximum of elution peak. Here is the method: Complexes were obtained by incubation of the peptides with dimyristoylphosphatidylcholine (DMPC, Sigma, St Louis, Mo.) vesicles at a DMPC/peptide, w/w ratio of 3/1 at 25° C. for 16 h. Complexes with dipalmitoylphosphatidylcholine (DPPC) were generated by the cholate dialysis procedure (Vanloo et al., 1991). All complexes were isolated by gel chromatography (FIG. 4) on a Superose PG column in a 0.01M Tris-HCl buffer, pH 8.0, 0.15M NaCl, 1 mM NaN3, 0.1 g/L EDTA. The column was first saturated with the phospholipid to avoid dissociation of the lipid-peptide complexes. The complexes were detected by continuous monitoring of the optical density at 280 nm and by measurement of the Trp emission of the fractions on a Jasco SP500 spectrofluorimeter. The composition and size of the complexes, were determined on the two fractions with maximal UV absorption in the elution peak of the complexes. The composition was determined by quantitation of the phospholipids using an enzymatic assay (Biomerieux, France), and of the peptide by an HPLC phenylalanine assay on a C18 reversed-phase column, after hydrolysis (Vanloo et al., 1991).

Data set [2] can be described thus: GdmCl denaturation followed by Trp maximal emission wavelength. Particulars: free peptide or protein.
Data set [3] in a line: Percentage of alpha-helix structure by ATR infrared spectroscopy. The following applies: for percentage of alpha-helix structure, peptide, IR: free peptide; for percentage of alpha-helix structure, DMPC/peptide, IR: phospholipid-peptide (DMPC) complex. The source says:
(§1) Table 1: corresponds to the percentage of alpha-helix structure in the free peptide and in the phospholipid-peptide (DMPC) complexes as determined by infrared spectroscopy (IR) and circular dichroism (CD).
(§2) Attenuated Total Reflection (ATR) infrared spectroscopy was used for the determination of the relative orientation of the apolipoprotein alpha-helical segments and of the phospholipid acyl chains as previously described for apo AI and apo AI-phospholipid complexes and for LDL (Vanloo et at., 1991). For these measurements, a 70 μL solution of 20 μg isolated complex in a 0.005M Tris-HCl buffer pH 8.4, was spread on a ATR Germanium crystal plate. Deuteration of the sample was performed by flushing N2, saturated with D2 O, in a sealed universal Perkin-Elmer sample holder, at room temperature for 3 hours, in order to avoid overlapping of the absorption bands for random and alpha-helical structures.
(§3) Spectra were recorded on a Perkin Elmer 1720X infrared spectrophotometer, using polarized incident light with a perpendicular (90°) and parallel (0°) orientation. A dichroic spectrum was obtained by substracting the spectrum recorded with polarized light at 0° from that at 90°. A positive deviation on the dichroic spectrum indicates a dipole preferentially oriented close to a normal to the plane, while a larger absorbance at 0° is indicative of a dipole oriented close to the Ge crystal plane. The angle between a normal to the Ge crystal and the dipole is obtained from the calculation of the dichroic ratio Ratr =A(90°)/A(0°), representing the ratio of the absorbances on the spectra recorded with polarized light at 90° and 0° . For each experiment, up to 15 scans were stored and averaged.

Data set [4] in a line: Trp fluorescence emission of peptides and complexes. The following applies: for Trp maximal emission wavelength, free: free peptide or protein; for Trp maximal emission wavelength upon phospholipid binding: in the phospholipid complex. Here is the method:
The measurement of the Trp fluorescence emission in the peptides and in the complexes was used to monitor complex formation. The fluorescence measurements were performed on an Aminco SPF-500 spectrofluorimeter equipped with a special adapter (Aminco-J4-9501) for the fluorescence polarisation measurements. The fluorescence polarization of the lipid-peptide complexes labelled with diphenyl hexatriene (DPH) (molar ratio of 500:1 lipid:DPH) was measured as a function of the temperature to detect changes in the fluidity of the phospholipid acyl chains due to lipid-peptide association. The excitation wavelength was set at 365 nm and emission was detected at 427 nm. Temperature scans between 15° and 40° C. were performed with a circulating water bath (Julabo) at a rate of 0.6° C./min.

A short description of data set [5]: Percentage of alpha-helix structure by circular dichroism. Particulars: for percentage of alpha-helix structure, peptide, CD: free peptide; for percentage of alpha-helix structure, DMPC/peptide, CD: phospholipid-peptide (DMPC) complex. Here is the method:
as §1
Circular dichroism spectra of the peptides and their complexes with lipids were measured on a Jasco 600 spectropolarimeter at 23° C. (Brasscur et at., 1991). Measurements were carried out at a protein concentration of 0.1 mg/ml in a 0.01M sodium phosphate buffer pH 7.4. Nine spectra were collected and averaged for each sample. The secondary structure was estimated according to the generalized inverse method of Compton and Johnson (Compton et at., 1986).

Data set [6] can be described thus: Electron microscopy size measurement of the lipid-peptide complexes. Particulars: complex with DPPC, from electromicrographs. Here is the method:
Phospholipid-peptide complexes, at a protein concentration of 150 μg/ml, were negatively stained with a 20 g/l solution of potassium phosphotungstate (pH 7.4). 7 μl of the samples were applied to Formvar carbon-coated grids and examined in a Zeiss EM 10C transmission electron microscope operating at 60 kV. Particle size was determined by measuring 120 discrete particles for each sample. The mean diameter and the size distribution of the complexes were calculated.

Data set [7] is described as follows: GdmCl denaturation followed by Trp maximal emission wavelength. Particulars: phospholipid (DMPC) complex. Here is the method: The stability of the DMPC-peptide complexes, was compared by following the maximal emission wavelength of the Trp residues after exposure to increasing quantities of GdmCl. For these experiments aliquots of a 8M GdmCl solution were added to the complex in the Tris-HCl buffer described above (see FIG. 3).

Data set [8] in a line: Orientation of helices and acyl chains by polarized ATR infrared spectroscopy. Particulars: peptide-DMPC complexes. Here is the method: as §2, §3
In order to determine the orientation of the alpha-helices with respect to the DMPC bilayer, ATR infrared spectra of DMPC and of the isolated peptide-DMPC complexes were recorded at two orthogonal linear polarizations of the incident light. […] This value is close to that measured for the apo AI-DMPC complex (Vanloo et al.,1991), and higher than that for pure DMPC. For the M1, M2, M3 and M4 peptide-DMPC complexes, the corresponding angles between the peptide and an axis perpendicular to the Ge plane are respectively 25°, 25°, 34° and 31°.

Where “and” joins values, the source holds several entries; their conditions need not be identical. Equal values may be shown once. Where no end group is shown, it is not given here.

Results on five substances are retold here after patent US5733879A, “Peptides and proteins, process for their preparation and their use as cholesterol acceptors” (N.V. Innogenetics, S.A., priority 1992, dated 1998).

On to “apo AI: native plasma apo AI purified from human plasma; major apoprotein constituent of HDL”, for which the “Composition DPPC/Protein w/w” value in data set [1] is 2/1. The “midpoint of the GdmCl denaturation transition, free peptide” value (“midpoint … free peptide” below) in data set [2] is recorded as 1.3 M. In data set [3], the “percentage of alpha-helix structure, peptide, IR” value is recorded as 39% and the “percentage of alpha-helix structure, DMPC/peptide, IR” value (“percentage … DMPC/peptide, IR” for short) is given as 49%. In addition, in data set [4], the “Trp maximal emission wavelength, free” value is 333 nm and 338 nm; the “Trp maximal emission wavelength upon phospholipid binding” value is on record as 329 nm. In data set [5], the “percentage of alpha-helix structure, peptide, CD” value is 29% and the “percentage of alpha-helix structure, DMPC/peptide, CD” value (“percentage … DMPC/peptide, CD” below) stood at 47%. In addition, the “Diameter MEAN ± SD” value in data set [6] worked out at 128 ± 22 Å. The “midpoint of the GdmCl denaturation, phospholipid complex” value (“midpoint … phospholipid complex” below) in data set [7] is on record as 2.5 M.

In the case of EWLKAEYEKVEEKLKELF [M3], the “complex size on Superose PG column” value in data set [1] (DPPC complexes, cholate dialysis) was “much larger”. For the same substance, the “Composition DPPC/Protein w/w” value in data set [1] is 4/1. Also, in data set [2], the “midpoint … free peptide” value was “around 0.1 M”. Further, in data set [8], the “angle between the peptide and an axis perpendicular to the Ge plane” value stood at 34 °. Further, in data set [3], the “percentage of alpha-helix structure, peptide, IR” value is 43% and the “percentage … DMPC/peptide, IR” value was determined as 61%. The “Diameter MEAN ± SD” value in data set [6] is 175 ± 55 Å. Further, in data set [7], the “midpoint … phospholipid complex” value is listed as “immediately”.

With EWLEAFYKKVLEKLKELF [M4], the “Composition DPPC/Protein w/w” value in data set [1] is 3/1. Besides, the “midpoint … free peptide” value in data set [2] is reported as “around 0.1 M”. Further, the “angle between the peptide and an axis perpendicular to the Ge plane” value in data set [8] stood at 31 °. Besides, in data set [3], the “percentage of alpha-helix structure, peptide, IR” value amounted to 35% and the “percentage … DMPC/peptide, IR” value was found to be 58%. For the same substance, in data set [5], the “percentage of alpha-helix structure, peptide, CD” value turned out to be 50% and the “percentage … DMPC/peptide, CD” value is 65%. The “Diameter MEAN ± SD” value in data set [6] came out at 150 ± 25 Å. In addition, the “midpoint … phospholipid complex” value in data set [7] is 2.5 M.

In the case of EWLKAEYEKVLEKLKELF [M2], the “Composition DPPC/Protein w/w” value in data set [1] is reported as 2/1. Besides, the “midpoint … free peptide” value in data set [2] is listed as “immediately”. The “angle between the peptide and an axis perpendicular to the Ge plane” value in data set [8] is listed as 25 °. In data set [3], the “percentage of alpha-helix structure, peptide, IR” value was 36% and the “percentage … DMPC/peptide, IR” value turned out to be 50%. In data set [4], the “Trp maximal emission wavelength, free” value amounted to 353 nm and the “Trp maximal emission wavelength upon phospholipid binding” value was determined as 342 nm. In addition, in data set [5], the “percentage of alpha-helix structure, peptide, CD” value came to 30% and the “percentage … DMPC/peptide, CD” value is reported as 46%. In addition, the “Diameter MEAN ± SD” value in data set [6] amounted to 173 ± 45 Å. In data set [7], the “midpoint … phospholipid complex” value was 3 M.

Take EWLKAFYKKVLEKLKELF [M1]: the “Composition DPPC/Protein w/w” value in data set [1] is recorded as 3/1. In data set [2], the “midpoint … free peptide” value is reported as “around 0.3 M”. The “angle between the peptide and an axis perpendicular to the Ge plane” value in data set [8] is listed as 25 °. Besides, in data set [3], the “percentage of alpha-helix structure, peptide, IR” value is 29% and the “percentage … DMPC/peptide, IR” value was 50%. In data set [4], the “Trp maximal emission wavelength, free” value was 341 nm and the “Trp maximal emission wavelength upon phospholipid binding” value is given as 335 nm. In data set [5], the “percentage of alpha-helix structure, peptide, CD” value is 20% and the “percentage … DMPC/peptide, CD” value was 46%. For the same substance, the “Diameter MEAN ± SD” value in data set [6] came out at 209 ± 33 Å. Also, the “midpoint … phospholipid complex” value in data set [7] was found to be 4 M.
